Among the data in the supplement of paper PMC10567573 are protein stability index values, retold here.

The data set is described as follows: protein stability index of a GFP-peptide fusion (GPS, HEK-293T) (PSI 1-6); higher = more stable. As to conditions: c terminus: a fixed tail appended.

± gives the standard deviation.
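Note: 24-mer peptide tiles fused after GFP, lentivirally expressed, FACS-sorted into six equal bins by GFP/DsRed ratio, decoded by Illumina sequencing, PSI is the read-weighted mean bin number.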

For TDIDLQTIDNDIVSMEIFFKAWLH [M1AP], the protein stability index stood at 2.39 ± 0.33 (treatment: DMSO) and 2.34 ± 0.45 (treatment: MLN4924 1 uM, 8 h).

In turn, LQIASDSHQYDRIYCGAGVQKDHE [PCMTD1] came in with a protein stability index (treatment: DMSO) of 4.24 ± 0.25 and a protein stability index (treatment: MLN4924 1 uM, 8 h) of 4.25 ± 0.28.

As to RRSSSKCIHDHHCGSQLSSTKGSR [NETO1], the protein stability index (treatment: DMSO) was determined as 3.74 ± 0.33 and the protein stability index (treatment: MLN4924 1 uM, 8 h) is 3.92 ± 0.36.

MIQTSKTEITELRRTLQGLEIELQ [KRT13]: the protein stability index reads like this: (treatment: DMSO) 3.02 ± 0.28; (treatment: MLN4924 1 uM, 8 h) 3.07 ± 0.24.

As for NIKIWLSLRSYLKRRGPQRSVDVV [PHTF1], the protein stability index came to 2.43 ± 0.35 (treatment: DMSO) and 2.54 ± 0.36 (treatment: MLN4924 1 uM, 8 h).

As to RTPLIKLSPKKTWEGFIGGFFSTV [CDS1], the protein stability index amounted to 2.03 ± 0.16 (treatment: DMSO) and 1.88 ± 0.37 (treatment: MLN4924 1 uM, 8 h).

On to ADEQLHCAGKAKRSGGHAPRVREL [ESR2], for which the protein stability index by setting is: (treatment: DMSO) 4.45 ± 0.26; (treatment: MLN4924 1 uM, 8 h) 4.39 ± 0.3.

Turning to DGSDFQHRERVAMHYQMSVTLKYE [JAGN1], the protein stability index runs as follows: (treatment: DMSO) 2.62 ± 0.26; (treatment: MLN4924 1 uM, 8 h) 2.87 ± 0.24.

Turning to PQYEFKEAAGSFTSSLAQPGAYYP [IRX6], the protein stability index reads like this: (treatment: DMSO) 3.37 ± 0.19; (treatment: MLN4924 1 uM, 8 h) 3.36 ± 0.24.

For LKILKPSIPLERIHFDSYITCVSG [FBXO33], the protein stability index (treatment: DMSO) is 2.22 ± 0.41 and the protein stability index (treatment: MLN4924 1 uM, 8 h) was found to be 2.23 ± 0.42.

With PALDWDSVHVPGPHAMTIQELVDY [PTPN9], the protein stability index by setting is: (treatment: DMSO) 4.08 ± 0.2; (treatment: MLN4924 1 uM, 8 h) 4.31 ± 0.15.

Regarding SALAPSVFKQAKDKVSDGVTKSPE [MAP2], the protein stability index (treatment: DMSO) was determined as 5.44 ± 0.22 and the protein stability index (treatment: MLN4924 1 uM, 8 h) turned out to be 5.44 ± 0.18.

Regarding NKTNKNSVSSCDQEHQSALEEAKQ [SMOC2], the protein stability index was determined as 5.13 ± 0.43 (treatment: DMSO) and 5.57 ± 0.3 (treatment: MLN4924 1 uM, 8 h).

In the case of THRLKDGSTMLIEAAKGGHTSVVC [ANKRD17], the protein stability index is 2.51 ± 0.33 (treatment: DMSO) and 2.56 ± 0.33 (treatment: MLN4924 1 uM, 8 h).

As for SLCSLLESQSTSLRGSYNSLHDGS [LURAP1L], the protein stability index (treatment: DMSO) was found to be 2.8 ± 0.11 and the protein stability index (treatment: MLN4924 1 uM, 8 h) worked out at 2.87 ± 0.41.

With PSVRKKAGSFSRRLIKRFSFKSKP [C2CD2L], the protein stability index runs as follows: (treatment: DMSO) 3.34 ± 0.56; (treatment: MLN4924 1 uM, 8 h) 3.35 ± 0.31.

WLPQQNAAYFLLSTNDKTVKLWKV [PPP2R2B]: the protein stability index by setting is: (treatment: DMSO) 2.53 ± 0.63; (treatment: MLN4924 1 uM, 8 h) 2.6 ± 0.8.

On to IYKKYALQSAAGKDAAKQIAWIKD [PDS5B], for which the protein stability index came out at 2.03 ± 0.3 (treatment: DMSO) and 2.61 ± 0.44 (treatment: MLN4924 1 uM, 8 h).

With EAPEAELSQAPAEGPDLVPAALGS [HES6], the protein stability index turned out to be 5.5 ± 0.31 (treatment: DMSO) and 5.41 ± 0.35 (treatment: MLN4924 1 uM, 8 h).

On to GCILQWKKIYCRICMAQIAYSGNT [ZBED1], for which the protein stability index was determined as 2.23 ± 0.81 (treatment: DMSO) and 2.28 ± 0.76 (treatment: MLN4924 1 uM, 8 h).

RCGVPDVAQFVLTEGNPRWEQTHL [MMP1]: the protein stability index (treatment: DMSO) is 2.42 ± 0.4 and the protein stability index (treatment: MLN4924 1 uM, 8 h) was found to be 2.3 ± 0.24.

Take LTSLLACLPAGPRVYFLKGGYETF [DUSP5]: the protein stability index was 2.34 ± 0.42 (treatment: DMSO) and 2.36 ± 0.47 (treatment: MLN4924 1 uM, 8 h).

On to GSLSLSFEREPSTSDLGTTDVQKK [RIPK4], for which the protein stability index (treatment: DMSO) turned out to be 5.26 ± 0.45 and the protein stability index (treatment: MLN4924 1 uM, 8 h) worked out at 5.31 ± 0.064.

Turning to MAKFGVHRILLLAISLTKCLESTK [MIA2], the protein stability index stood at 3.27 ± 0.52 (treatment: DMSO) and 3.06 ± 0.8 (treatment: MLN4924 1 uM, 8 h).

With LPAAEFHGLWDSLVYDVEVKSHLL [TRIP13], the protein stability index was 2.43 ± 0.22 (treatment: DMSO) and 2.42 ± 0.2 (treatment: MLN4924 1 uM, 8 h).

In the case of FSVVRRCMKIPTGQEYAAKIINTK [CAMK2D], the protein stability index was 2.3 ± 0.1 (treatment: DMSO) and 2.31 ± 0.36 (treatment: MLN4924 1 uM, 8 h).

As for PAGCMYIHGGVVNIHENKRTGSLF [KLHDC10], the protein stability index (treatment: DMSO) was 2.52 ± 0.18 and the protein stability index (treatment: MLN4924 1 uM, 8 h) stood at 2.45 ± 0.26.

MSGRSKRESRGSTRGKRESESRGS [USP39]: the protein stability index worked out at 4.96 ± 0.12 (treatment: DMSO) and 5 ± 0.46 (treatment: MLN4924 1 uM, 8 h).

Consider YECNHCGKGFRHSSSLAQHQRKHA [ZNF8], for which the protein stability index reads like this: (treatment: DMSO) 5.08 ± 0.32; (treatment: MLN4924 1 uM, 8 h) 5.12 ± 0.28.

Turning to FALLADKAAQQGKQEENDVVEKLN [SNX8], the protein stability index worked out at 5.38 ± 0.13 (treatment: DMSO) and 5.33 ± 0.15 (treatment: MLN4924 1 uM, 8 h).

On to QVYKETRLFLDGEEEKEWAFEESK [AASDHPPT], for which the protein stability index is, setting by setting: (treatment: DMSO) 4.56 ± 0.26; (treatment: MLN4924 1 uM, 8 h) 4.74 ± 0.15.

On to GYLVTKVVAVDRDSGQNAWLSYRL [PCDHGA10], for which the protein stability index was found to be 2.6 ± 0.56 (treatment: DMSO) and 2.58 ± 0.69 (treatment: MLN4924 1 uM, 8 h).

As to IDFLRVVRNQQSLAVSNMGARSKG [PTPN9], the protein stability index is, setting by setting: (treatment: DMSO) 2.76 ± 0.17; (treatment: MLN4924 1 uM, 8 h) 3.46 ± 0.098.

For DNQWMTQINRLQKLIDRLEKKDLK [NECAB1], the protein stability index reads like this: (treatment: DMSO) 2.13 ± 0.43; (treatment: MLN4924 1 uM, 8 h) 3.16 ± 0.33.

For the sequence PSCQETRDYAPPSRGYAYRDNGHS [RBMY1A1], the protein stability index is 4.18 ± 0.18 (treatment: DMSO) and 4.21 ± 0.21 (treatment: MLN4924 1 uM, 8 h).

FIGLEVVAQLFNCMVGLLLIALLT [ATL3]: the protein stability index reads like this: (treatment: DMSO) 3.08 ± 0.3; (treatment: MLN4924 1 uM, 8 h) 3.39 ± 0.28.
